Experimental findings from patent US20210403546A1 (published 2021) are described below.

This test concerns the target human recombinant TGF-b1 (human, UniProt P01137 279-390). As to the kind of experiment: Biacore SPR. In general terms: Surface plasmon resonance follows binding to a sensor surface in real time, without labels.

Chain of human recombinant TGF-b1 (P01137 279-390): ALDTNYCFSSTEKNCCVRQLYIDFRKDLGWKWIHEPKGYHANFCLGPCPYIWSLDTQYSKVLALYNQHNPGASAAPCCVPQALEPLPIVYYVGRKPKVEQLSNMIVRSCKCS

B1: 13A1_2F Fab (LCR13A1_VK_GLv1_05 + LCR13A1_VH_GLv1_03, stable Fab) (Fab, V domains shown)
VH: QVQLVQSGSVLAKPGASVKVSCKASGYTFTNYWMHWVRQAPGQGLEWIGTIYPGNSDTNYNQKFKDRAKLTAVTSTSTVYMELSSLRSEDTAVYYCTREDSRSLYYNGWDYFDYWGQGTLVTVSS
VL: DIVMTQSPDSLAVSLGERATISCRASESVDNYGISFLNWFQQKPGQPPKLLIYAASNQGSGVPSRFSGSGSGTDFTLNIHPLEAEDAATYYCQQSKEVPRTFGGGTKVEIK
One may read the Kd as the equilibrium constant for the complex coming apart. B1: the dissociation constant Kd was 0.639 nM.

B2: 13A1_2B Fab (LCR13A1_VH_GLv1_03_LCR13A1_VK_GLv3, stable Fab) (Fab, V domains shown)
VH: QVQLVQSGSVLAKPGASVKVSCKASGYTFTNYWMHWVRQAPGQGLEWIGTIYPGNSDTNYNQKFKDRAKLTAVTSTSTVYMELSSLRSEDTAVYYCTREDSRSLYYNGWDYFDYWGQGTLVTVSS
VL: DIVMTQSPDSLAVSLGERATINCKSSESVDNYGISFLNWFQQKPGKAPKLLIYAASNQGSGVPDRFSGSGSGTDFTLTISSLQAEDVAVYFCQQSKEVPRTFGGGTKLEIK
B2: the equilibrium dissociation constant (Kd) is 0.615 nM.
